We go through two substances from article PMC9293771.

The assay has as its target N-terminally truncated N-terminally His6-tagged human aspartate/asparagine-β-hydroxylase (His6-AspH315–758) (human) (UniProt Q12797).
UniProt Q12797, sequence (Q12797 315-758): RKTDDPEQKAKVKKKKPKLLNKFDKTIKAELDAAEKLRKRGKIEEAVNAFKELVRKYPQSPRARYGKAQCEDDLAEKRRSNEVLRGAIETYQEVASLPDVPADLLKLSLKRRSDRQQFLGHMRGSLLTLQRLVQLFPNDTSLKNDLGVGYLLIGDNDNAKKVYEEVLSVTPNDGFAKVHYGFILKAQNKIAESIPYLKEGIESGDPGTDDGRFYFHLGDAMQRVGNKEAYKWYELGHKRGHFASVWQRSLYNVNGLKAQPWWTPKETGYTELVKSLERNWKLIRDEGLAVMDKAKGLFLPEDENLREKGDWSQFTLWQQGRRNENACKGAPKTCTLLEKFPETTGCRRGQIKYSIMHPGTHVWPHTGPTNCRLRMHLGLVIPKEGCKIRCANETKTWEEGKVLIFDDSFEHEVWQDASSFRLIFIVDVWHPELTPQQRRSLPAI

Consider “hHMCN1-CP5164–5182, thioether-bridged cyclic peptide derived from EGFD2 of human hemicentin-1 (from UniProt Q96RW7 5164-5182)”, for which the Km of AspH for the peptide substrate, steady-state kinetics of hydroxylation by SPE-MS (0.1 μM His6-AspH315–758, 50 mM Hepes, pH 7.5, 20 °C) is 7.9 μM.
Then “hLYPD6B-CP65–83, thioether-bridged cyclic peptide derived from the LU domain of human LYPD6B (from UniProt Q8NI32 65-83)”, with 47 μM.
